For the test, the target named is wild-type IgG1 Fc (human, UniProt P01857 108-328 = IgG part, N-linked glycan at Asn297). The test is described as follows: SPR.

The text below walks through data of PMC4769027 (Journal of structural biology, 2016).

B1: FcγRIIa H131 variant ectodomain (receptor, human, UniProt P12318 34-211, looked up)
chain: QAAAPPKAVLKLEPPWINVLQEDSVTLTCQGARSPESDSIQWFHNGNLIPTHTQPSYRFKANNNDSGEYTCQTGQTSLSDPVHLTVLSEWLVLQTPHLEFQEGETIMLRCHSWKDKPLVKVTFFQNGKSQKFSHLDPTFSIPQANHSHSGDYHCTGNIGYTLFSSKPVTITVQVPSMG
Molecule B1 displayed a Kd of 4.49 µM.

B2: FcγRIIb ectodomain (receptor, human, UniProt P31994 43-217, looked up)
chain: TPAAPPKAVLKLEPQWINVLQEDSVTLTCRGTHSPESDSIQWFHNGNLIPTHTQPSYRFKANNNDSGEYTCQTGQTSLSDPVHLTVLSEWLVLQTPHLEFQEGETIVLRCHSWKDKPLVKVTFFQNGKSKKFSRSDPNFSIPQANHSHSGDYHCTGNIGYTLYSSKPVTITVQAP
Turning to B2, the Kd was found to be 9.28 µM.
